Experiments:
[1] = target: T1, KRAS G12V peptide on HLA-A*02:01 (human); assay: multimer staining
T1 peptide: KLVVVGAVGV

[2] = target: KRAS 7-16(G12V) SCT tetramer #7; assay: flow cytometry, tetramer labelling of TCR-transduced donor X CD8+ T cells, Tetramer APC against CD8 ef450 [Continued]
[3] = target: KRAS 7-16(G12D) SCT tetramer #2 (human); assay: as above
[4] = target: HLA-A2 (DM)/KRAS (5-14_G12V)-peptide multimer; assay: flow cytometry, Tet+ gate frequency; A2DM/KRAS G12V 5-14 tetramer at 1:400 [Continued]
[5] = target: HLA-A2 (DM)/KRAS (5-14_G12V)-peptide multimer; assay: flow cytometry, Tet+ gate frequency; A2DM/KRAS G12V 5-14 tetramer at 1:200 [Continued]
[6] = target: A2/KRAS G12V 5-14 (human), A*02:0; assay: flow cytometry, Tet+ gate frequency; A2/KRAS G12V 5-14 tetramer at 1:400; no-tetramer control Tet+ 0
[7] = target: T2, KRAS G12V (same sequence in NRAS and HRAS G12V) peptide on HLA-A*11:01 (human); assay: cytokine release
T2 peptide: VVGAVGVGK

[8] = target: T3, KRAS G12V (same sequence in NRAS and HRAS G12V) peptide on HLA-A*11:01 (human); assay: cytokine release
T3 peptide: VVVGAVGVGK

[9] = target: T4, KRAS G12D (same sequence in NRAS and HRAS G12D) peptide on HLA-A*11:01 (human); assay: cytokine release
T4 peptide: VVVGADGVGK

[10] = target: HLA-A2 (DM)/KRAS (5-14_G12V)-peptide multimer; assay: flow cytometry, Tet+ gate frequency; A2DM/KRAS G12V 5-14 tetramer at 1:100 [Continued]
[11] = target: HLA-A2 (DM)/KRAS (5-14_G12V)-peptide multimer; assay: flow cytometry, Tet+ gate frequency; A2DM/KRAS G12V 5-14 tetramer at 1:50 [Continued]

B1: A2 KRAS TCR12 (TCR, V domains shown)
Valpha: AQSVTQLDSQVPVFEEAPVELRCNYSSSVSVYLFWYVQYPNQGLQLLLKYLSGSTLVESINGFEAEFNKSQTSFHLRKPSVHISDTAEYFCAVTRDDKIIFGKGTRLHILP
Vbeta: DVKVTQSSRYLVKRTGEKVFLECVQDMDHENMFWYRQDPGLGLRLIYFSYDVKMKEKGDIPEGYSVSREKKERFSLILESASTNQTSMYLCASSLQVSGVAGYTFGSGTRLTVV
B1: recognises [1].

B2: A2 KRAS TCR09 (TCR, V domains shown)
Valpha: GESVGLHLPTLSVQEGDNSIINCAYSNSASDYFIWYKQESGKGPQFIIDIRSNMDKRQGQRVTVLLNKTVKHLSLQIAATQPGDSAVYFCAEIFNDYKLSFGAGTTVTVRA
Vbeta: EAQVTQNPRYLITVTGKKLTVTCSQNMNHEYMSWYRQDPGLGLRQIYYSMNVEVTDKGDVPEGYKVSRKEKRNFPLILESPSPNQTSLYFCASSQAGLGNEQFFGPGTRLTVL
B2: recognises [1].

B3: 141_1 TCR (TCR, V domains shown)
V domain 1: AQTVTQSQPEMSVQEAETVTLSCTYDTSESDYYLFWYKQPPSRQMILVIRQEAYKQQNATENRFSVNFQKAAKSFSLKISDSQLGDAAMYFCALKTSYDKVIFGPGTSLSVIP
V domain 2: NAGVTQTPKFQVLKTGQSMTLQCAQDMNHEYMSWYRQDPGMGLRLIHYSVGAGITDQGEVPNGYNVSRSTTEDFPLRLLSAAPSQTSVYFCASSLGAGEWKSPLHFGNGTRLTVTE
For B3, the tetramer gate (share of cells in the gate; unit not given) [2] was 4.06 and the tetramer gate (share of cells in the gate; unit not given) [3] was 14.8.

B4: A2 KRAS TCR15 (TCR, V domains shown)
Valpha: GEDVEQSLFLSVREGDSSVINCTYTDSSSTYLYWYKQEPGAGLQLLTYIFSNMDMKQDQRLTVLLNKKDKHLSLRIADTQTGDSAIYFCAEMMDTDKLIFGTGTRLQVFP
Vbeta: EAGVAQSPRYKIIEKRQSVAFWCNPISGHATLYWYQQILGQGPKLLIQFQNNGVVDDSQLPKDRFSAERLKGVDSTLKIQPAKLEDSAVYLCASSLPSGNEQFFGPGTRLTVL
B4: recognises [1].

B5: A2 KRAS TCR19 (TCR, V domains shown)
Valpha: AQSVSQHNHHVILSEAASLELGCNYSYGGTVNLFWYVQYPGQHLQLLLKYFSGDPLVKGIKGFEAEFIKSKFSFNLRKPSVQWSDTAEYFCAVNDPSDYKLSFGAGTTVTVRA
Vbeta: DGGITQSPKYLFRKEGQNVTLSCEQNLNHDAMYWYRQDPGQGLRLIYYSQIVNDFQKGDIAEGYSVSREKKESFPLTVTSAQKNPTAFYLCASRSDRNEQFFGPGTRLTVL
B5: recognises [1].

B6: TCR13 (TCR, V domains shown)
Valpha: QKEVEQDPGPLSVPEGAIVSLNCTYSNSAFQYFMWYRQYSRKGPELLMYTYSSGNKEDGRFTAQVDKSSKYISLFIRDSQPSDSATYLCAMSASAAGNKLTFGGGTRVLVKP
Vbeta: EADIYQTPRYLVIGTGKKITLECSQTMGHDKMYWYQQDPGMELHLIHYSYGVNSTEKGDLSSESTVSRIRTEHFPLTLESARPSHTSQYLCASSEGLYNEQFFGPGTRLTVL
B6 was tested, and the Tet+ [4] was 9.2, the Tet+ [5] was 33.7 and the Tet+ [6] was 84.6. B6: no recognition [7]; no recognition [8]; recognises [9]. It also gave a Tet+ [10] of 45, a tetramer gate (share of cells in the gate; unit not given) [2] of 5.19 and a tetramer gate (share of cells in the gate; unit not given) [3] of 82.8. For the same binder, the Tet+ [11] was 58.7.

B7: A2 KRAS TCR04 (TCR, V domains shown)
Valpha: AQKVTQAQTEISVVEKEDVTLDCVYETRDTTYYLFWYKQPPSGELVFLIRRNSFDEQNEISGRYSWNFQKSTSSFNFTITASQVVDSAVYFCALMDSSYKLIFGSGTRLLVRP
Vbeta: GAVVSQHPSWVICKSGTSVKIECRSLDFQATTMFWYRQFPKQSLMLMATSNEGSKATYEQGVEKDKFLINHASLTLSTLTVTSAHPEDSSFYICSAFLSGSADTQYFGPGTRLTVL
B7: recognises [1].

B8: TCR_20 (TCR, V domains shown)
V domain 1: DAKTTQPPSMDCAEGRAANLPCNHSTISGNEYVYWYRQIHSQGPQYIIHGLKNNETNEMASLIITEDRKSSTLILPHATLRDTAVYYCIVRLNSGNTPLVFGKGTRLSVIA
V domain 2: EAGVAQSPRYKIIEKRQSVAFWCNPISGHATLYWYQQILGQGPKLLIQFQNNGVVDDSQLPKDRFSAERLKGVDSTLKIQPAKLEDSAVYLCASSPTFPAGDRDTQYFGPGTRLTVLE
B8 showed a tetramer gate (share of cells in the gate; unit not given) [2] of 3.96 and a tetramer gate (share of cells in the gate; unit not given) [3] of 3.48.

B9: A2 KRAS TCR11 (TCR, V domains shown)
Valpha: DQQVKQNSPSLSVQEGRISILNCDYTNSMFDYFLWYKKYPAEGPTFLISISSIKDKNEDGRFTVFLNKSAKHLSLHIVPSQPGDSAVYFCAAISLTSGTYKYIFGTGTRLKVLA
Vbeta: DTEVTQTPKHLVMGMTNKKSLKCEQHMGHRAMYWYKQKAKKPPELMFVYSYEKLSINESVPSRFSPECPNSSLLNLHLHALQPEDSALYLCASSQDLGTVYEQYFGPGTRLTVT
B9: recognises [1].

B10: A2 KRAS TCR05 (TCR, V domains shown)
Valpha: AQSVTQPDIHITVSEGASLELRCNYSYGATPYLFWYVQSPGQGLQLLLKYFSGDTLVQGIKGFEAEFKRSQSSFNLRKPSVHWSDAAEYFCAVGDENTGFQKLVFGTGTRLLVSP
Vbeta: DVKVTQSSRYLVKRTGEKVFLECVQDMDHENMFWYRQDPGLGLRLIYFSYDVKMKEKGDIPEGYSVSREKKERFSLILESASTNQTSMYLCASALRGTYEQYFGPGTRLTVT
B10: recognises [1].

B11: A2 KRAS TCR18 (TCR, V domains shown)
Valpha: GEDVEQSLFLSVREGDSSVINCTYTDSSSTYLYWYKQEPGAGLQLLTYIFSNMDMKQDQRLTVLLNKKDKHLSLRIADTQTGDSAIYFCAVLLDNQGGKLIFGQGTELSVKP
Vbeta: DVKVTQSSRYLVKRTGEKVFLECVQDMDHENMFWYRQDPGLGLRLIYFSYDVKMKEKGDIPEGYSVSREKKERFSLILESASTNQTSMYLCASRGLSTDTQYFGPGTRLTVL
B11: recognises [1].

B12: A2 KRAS TCR08 (TCR, V domains shown)
Valpha: GEDVEQSLFLSVREGDSSVINCTYTDSSSTYLYWYKQEPGAGLQLLTYIFSNMDMKQDQRLTVLLNKKDKHLSLRIADTQTGDSAIYFCAERIDSGNTPLVFGKGTRLSVIA
Vbeta: DVKVTQSSRYLVKRTGEKVFLECVQDMDHENMFWYRQDPGLGLRLIYFSYDVKMKEKGDIPEGYSVSREKKERFSLILESASTNQTSMYLCAIEPPTGNEQYFGPGTRLTVT
B12: recognises [1].

— patent US20250114433A1 (published 2025)
